{
  "source": "paper PMC11381232",
  "about": "“Efficient expression and purification of rat CRP in Pichia pastoris” (Frontiers in Immunology, 2024)",
  "proteins": {"B1": {"name": "rat C-reactive protein purified from rat serum (natural protein, UniProt P48199 20-230, looked up)", "chain": "HEDMSKQAFVFPGVSATAYVSLEAESKKPLEAFTVCLYAHADVSRSFSIFSYATKTSFNEILLFWTRGQGFSIAVGGPEILFSASEIPEVPTHICATWESATGIVELWLDGKPRVRKSLQKGYIVGTNASIILGQEQDSYGGGFDANQSLVGDIGDVNMWDFVLSPEQINAVYVGRVFSPNVLNWRALKYETHGDVFIKPQLWPLTDCCES", "notes": "C-reactive protein, rat, endogenous protein from serum; Homopentamer by negative-stain EM and SEC; also called rCRP; rat CRP; source: purified from serum of turpentine-injected Wistar rats (p-Aminophenyl Phosphoryl Choline Agarose, DEAE, SEC)"}, "B2": {"name": "recombinant rat CRP with N-terminal Strep-tag II, secreted from E. coli BL21 (DE3) (natural protein, UniProt P48199 20-230, looked up)", "chain": "B1 chain", "notes": "C-reactive protein, rat, wild type, cDNA by NM_017096.3; so no native signal peptide; A bacterial signal peptide stood before the tag for secretion (text: alkaline phosphatase, ALP); also called rCRP; rCRPwt-pET42c"}, "B3": {"name": "recombinant rat CRP with C-terminal 6×His tag, secreted from Pichia pastoris GS115 (natural protein, UniProt P48199 20-230, looked up)", "chain": "B1 chain", "notes": "C-reactive protein, rat, wild type; the reverse primer ends at ...DCCES followed by GA and six histidines; Secreted by the S. cerevisiae alpha-factor signal of pPIC9K; By the reverse primer a Gly-Ala stands between CRP and the His6 tag; also called rCRP; rCRP-6×His fusion protein; source: P. pastoris GS115, secreted into the culture medium, purified (Ni2+-NTA, p-Aminophenyl Phosphoryl Choline …)"}},
  "key": {"[1]": {"target": "the molecule itself", "assay": "negative-stain electron microscopy; CRP diluted to 0.15-0.3 mg/mL in 20 mM Tris pH 6.8, 150 mM NaCl, 2 mM CaCl2, 1-2 h at 18°C, 1% uranyl acetate; self-association, pentamer"}, "[2]": {"target": "the molecule itself", "assay": "SDS-PAGE and Western blot, non-reduced against reduced; yeast-secreted rCRP-6×His without or with 20 mM DTT, anti-His detection; disulfide-linked dimer of subunits"}},
  "data": [
    {"protein": "B1", "values": [
      {"measurement": "stoichiometry N", "setting": "[1]", "result": 5}
    ]},
    {"protein": "B2", "values": [
      {"measurement": "stoichiometry N", "setting": "[1]", "result": 5}
    ]},
    {"protein": "B3", "values": [
      {"measurement": "stoichiometry N", "setting": "[2]", "result": 2},
      {"measurement": "stoichiometry N", "setting": "[1]", "result": 5}
    ]}
  ]
}
